Tests used:
OgHAT (OgAT) = molecular target: T1, OgHAT (OgAT) (Oceanicola granulosus, UniProt Q2CEE2); test: SPR (Biacore […]), […] equilibrium-binding fit
T1 construct: gene OG2516_04134; amine-biotinylated, captured on streptavidin CM5 chip; not known to form dimers

[1] = molecular target: His-tagged Trichoplax adhaerens OGA pHAT domain (TapHAT) (Trichoplax adhaerens); test: SEC; analytical; Superdex 200 Increase 10/300 GL; 500 μL of His-tagged pHAT at 1 mg/mL; 25 mM Tris pH 7.5, 150 mM NaCl, 0.5 mM TCEP; LMW calibration standards
[2] = molecular target: the molecule itself; test: cryo-EM structure; 0.5 mg/mL hOGA or TaOGA vitrified at 4 °C; Titan Krios 300 kV; CryoSPARC
[3] = molecular target: the molecule itself; test: SEC; analytical; Superdex 200 Increase 10/300 GL; 500 μL of His-tagged pHAT at 1 mg/mL; 25 mM Tris pH 7.5, 150 mM NaCl, 0.5 mM TCEP; LMW calibration standards

T1 sequence (Q2CEE2 whole entry): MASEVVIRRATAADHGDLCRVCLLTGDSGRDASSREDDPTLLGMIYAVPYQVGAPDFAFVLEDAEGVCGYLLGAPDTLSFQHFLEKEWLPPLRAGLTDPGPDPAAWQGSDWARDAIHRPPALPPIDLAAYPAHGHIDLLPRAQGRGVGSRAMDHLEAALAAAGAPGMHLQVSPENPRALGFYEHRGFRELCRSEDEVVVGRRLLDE

CC(=O)SCCNC(=O)CCNC(=O)[C@H](O)C(C)(C)COP(=O)(O)OP(=O)(O)OC[C@H]1O[C@@H](n2cnc3c(N)ncnc32)[C@H](O)[C@@H]1OP(=O)(O)O [acetyl-CoA]
Kd (OgHAT (OgAT)): 5 mM

His-tagged Trichoplax adhaerens OGA pHAT domain (TapHAT) (domain or fragment)
stoichiometry N [1]: 2

B1: Trichoplax adhaerens O-GlcNAcase (TaOGA), residues 5-723 (enzyme, UniProt A0A0D5X2Y8 5-723, looked up)
chain: KFLSGVVEGFYGKPWSFEQRKTLFSNMAKWGLNTYMYGPKDDEKHRAAWKQAYSKREGDSLRALIRAAEESGILFIYAISPGVDITYSSNRDMKFLKDKLDQIRNFGCNSFAIFFDDIDTVMCLQDQEEFESFAAAQVEVTNEIYKYLGMPANFLFCPTEYCAARADPNVKESKYLVTVGTGLHSDIHIMWTGPKVVSNKISVESILELQTVLRRKPVIWDNIHANDYEQGRLNLGPYDCRPAELMESLNGIFTNPNCEFELNYVPIRTFSLWCQSKRTRFNYDVEKALEQSIREWTEEFCIPRLPDGYLLEADTSDTNVNEYMDDEMQSDSRPISPANSMETDKDELTVKDIRLLVELFYLPQKHGKTANDLLAQAKWLKSNFRIAALSRKPNDTSEGSNLDEHNTDYIAAKEWDKRFSKFRSICQIIHQFGDRLMTCRNRVLLYEVYNYVADLCGILYHLISRIHSLANPEKLEKRSDSEQSSFRYGGFVGDIHRLIVSTDEYEESTLKNSDAYVIRPFMPSDEETLYDLCLKSCIENSNGDEIYKREPRIIGDRDLGAYIYLHPEYIYVLEDDRDKICGYLCGALDSKQFYERYESEWLTQIRDRHPQPENDIASWTPEEIVANSFYNFTPPTDVSVLYLSHLEARFDSSVPEKVIKRIIRFILEQLKAKGSYGASMLIDSWRTNLRRIFTSMGFVDLQEYSWMSEQKCMIAIKLM
notes: TaOGA (TaOGA54), Trichoplax adhaerens, residues 5-723; the results call it full-length; also called TaOGA54; full-length TaOGA; source: E. coli BL21(DE3) pLysS, purified (Ni-NTA, PreScission cleavage, Superdex 200); not shown: His6, N-terminal, cleaved
binding result [2]: binds

B2: His-tagged human OGA pHAT domain (hpHAT) (domain or fragment, UniProt O60502 710-916, looked up)
chain: PTSKVYTIRPYFPKDEASVYKICREMYDDGVGLPFQSQPDLIGDKLVGGLLSLSLDYCFVLEDEDGICGYALGTVDVTPFIKKCKISWIPFMQEKYTKPNGDKELSEAEKIMLSFHEEQEVLPETFLANFPSLIKMDIHKKVTDPSVAKSMMACLLSSLKANGSRGAFCEVRPDDKRILEFYSKLGCFEIAKMEGFPKDVVILGRSL
notes: pHAT domain of human O-GlcNAcase (OGA), residues 710-916; non-cleavable 6xHis-tag; also called human pHAT; isolated human pHAT domain; source: E. coli BL21(DE3) pLysS, purified (NiNTA, Superdex 75)
stoichiometry N [3]: 2

— article PMC12494797, “Multi-domain O-GlcNAcase structures reveal allosteric regulatory mechanisms” (Nature Communications, 2025)
